According to the nanobody polyreactivity screen of Harvey et al. (2022):

Test: yeast display, Sf9 membrane polyspecificity reagent, FACS + sequencing; frameworks hold sequencing errors
Method in brief: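 A nanobody's polyreactivity label depends on the gate it was sorted from. Yeast display cells were stained with 10% biotinylated, detergent-solubilized Sf9 membrane reagent for 1 hour at 4 °C, enriched on streptavidin microbeads and sorted by FACS. The low and high (top ~1%) gates were set on anti-HA fluorescence for expression and streptavidin fluorescence for reagent binding.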

QVKLVESGGGLVQAGGSLRLSCAASGRIFNWYAMGWYRQAPGKERELVARISSGDITSYADSVKGRFTISRDNAKNTVYLQMNSLKPEDTALYYCNDDGFFLNVSPYDYWGQGTQVTVSS
polyreactivity (PSR sort gate): low polyreactivity

QVKLVESGGGLVQAGGSLRLSCAASGRILGYYAMGWYRPAPGKERELVAAINRGGRTYYADSVKGRFTISRDNAKNTVYLEMYSLKPEDTAVYYCAAVLYNQWALVYWFGYNYWGQGTQVSVSS
polyreactivity (PSR sort gate): high polyreactivity

QVKLVESGGGLVQAGGSLRLSCAASGSIFSMYTMGWYRQAPGKARELVAAIDRSGGSTYYADSVKGRFTISRDNAKNTVYLQMNSLKPEDTAVYYCATDSVYIYDPYWSSIIEYDYWGQGTQVTVSS
polyreactivity (PSR sort gate): low polyreactivity

QVKLVESGGGLVQAGGSLRLSCAASGSISLYYAMGWYRQAPGKERELVAAISDSGGDTYYADSVKGRFTISRDNAKITVYLQMNSLKPADTAVYYCATDTAYWLWVYALLEYWGQGTQVTVSS
polyreactivity (PSR sort gate): low polyreactivity

QVKLVESGGGLVQAGGSLRLSCAASGSTFAGTAMGWYRQAPGKEREMVAAISWNTGSTYADSVKGRFTISRDNAKNTVYLQMNSLKPEDTAVYYCAADRSHAYYRKNRVDYWGQGTQVTVSS
polyreactivity (PSR sort gate): low polyreactivity

QVKLVESGGGLVQAGGSLRLSCAASGSTFPRYAMGWYRQAPGKEREFVAVIWSGGSTYYADSVKGRFTISRDNAKNTVYFQMNSLIPEDTAVYYCAAEYHTLSKYSGYATHDYWGQGTQVTVSS
polyreactivity (PSR sort gate): low polyreactivity

QVKLVESGGGLVQAGGSLRLSCAASGSTFYAYVMGWYRQAPGKARELVAAISKGGGSTYYADSVKGRFTISRDNAKNTVYLQMNSLKPEDTAVYYSAAYASYSNYRKYNYWGQGTQVTVSS
polyreactivity (PSR sort gate): high polyreactivity

QVKLVESGGGLVQAGGSLRLSCAASGSTFYHNAIGWYRQAPGKERELVARITRGGSTDYADSVKGRFTISRDNAKNTVYLQMNSLKPEDTEVYYCAADIGHFERFYWGQGTQVTVSS
polyreactivity (PSR sort gate): low polyreactivity

QVKLVESGGGLVQAGGSLRLSCAASGSTSRDNAMGWYRQAPGKERELVGAITVIDGTTYYADSVKGRFTISRDNAKNTVYLQMNSLKPEDTAVYYCAADTIWYEYYYWGQGTQVTLSS
polyreactivity (PSR sort gate): low polyreactivity

QVKLVESGGGLVQAGGSLRLSCAASGSTYWQYSMGWYRHAPGKEREFVAAISSRGGSTYYADSVKGRFTISRDNAKNTVYLQMNSLKPEDTAVYYFAAKNYFAFIRTYRYVHRPTYYYWGQGTQVTVSS
polyreactivity (PSR sort gate): high polyreactivity

QVKLVESGGGLVQAGGSLRLSCADSGSIFYNNAMGWYRQAPGKERELVATIRRSGGSTYYADSVKGRFTISRDNAKNTVYLQMISLKPEDTAVDYCNAPPYLALVLIDYDYWGQGTQVTVSS
polyreactivity (PSR sort gate): low polyreactivity

QVKLVESGGGLVQAGGSLRLSSAASGSTFDSNAMGWYRQEPGKERELVAAITRGGSTNYADSVKGRFTISRDNAKNTVYLQMNSLKPEDTAVYYCAAASETLGYATYGSGYDYWGQGTQVTVSS
polyreactivity (PSR sort gate): low polyreactivity

QVKLVESGGGLVQAGGSLRLTCAASGRTFARYAMGWSRQEPGKERELVAAISRRGTSTYYADSVKGRFTISRDNAKNTVYLQMNSLKPEDTAVYYCAVDPYLGHYDYWGQGTQVTVSS
polyreactivity (PSR sort gate): high polyreactivity

QVKLVESGGGLVQSGGSLRLSCAASGSILDVNAMGWYRQAPGKERELVAAISDSGGSTYYADSVKGRFTISRDNAKNTVYLQMNSLKPEDTAVYYCATAYYYHGGYYYPYDDYWGQGTQVTVSS
polyreactivity (PSR sort gate): low polyreactivity

QVKLVESGGRLVQAGGSLRLSCAASGFTNYAMGWNRQAPGKERELVAAITLSDASTYYADSVKGRFTISRDNAKNTVYLQMNSLKPEDTAVDYCAAKGGRSKSGARALGYWGQGTHVTVSS
polyreactivity (PSR sort gate): low polyreactivity

QVKLVESVGGLVQAGGSLRLTCAASGIIFPVYAMGRYRQAPGKERQLVSAITYSGDRTYYADSVKGRFTISSDNAKNTVYLQMHSLKPEDTAVYYCNARFGVWPYFYNEDDYWGQGTQVTVSS
polyreactivity (PSR sort gate): low polyreactivity

QVKRVESGGGLVQAGGSLRLSCAASGSIFDEYAMGWYIQAPGKERELVAAITRTGGRTYYADSVKGRFTISRENAKNSVYLQMNSLIPEDTAVYFCNAPSRTRYDYWGQGTQVTVSS
polyreactivity (PSR sort gate): low polyreactivity

QVLLQEIGGGLVQAGGSLRLCCAASGYISGDQFMGWYRQAPGKEPECVAGIGNGTNSNYADSVKGRFTTSRDNAKNTVYLQMNILKPEDTAVYYCAADPSDGSTLAFWGQGTQVTVSS
polyreactivity (PSR sort gate): high polyreactivity

QVLLQESGGCLVQAGGSMRLSCAASGYISSWYPMGWYRQAPGKEREFVATIAPGATTYYADSVKGRFTISRDYAKTTVYLQMNSLKPEDTAVSYCAAGPENNDFYSYWGQGTQVTVSR
polyreactivity (PSR sort gate): low polyreactivity

QVLLQESGGGLVQAGGSLRLCCAASGYISGDQIMGWYRQAPGKDREFVAGIGNGTNTNYADSVKGRFTTSRDNAKNTVYLQMNSLNPEDTAVYYCPADPSDGSTLAYWGQGTQVTVSS
polyreactivity (PSR sort gate): high polyreactivity

QVLLQESGGGLVQAGGSLRLGCAASGTISHAYYMGRYHQAPGKEREFVAAITYGTNTYYADSVKGRFTISRDNAKNTVYLQMNSLKPEDTAVYYCSATAGYNGAHDYWGQGTQVTVSS
polyreactivity (PSR sort gate): low polyreactivity

QVLLQESGGGLVQAGGSLRLSCAASGNIFSAGGMGWYRQAPVNERELVAGIGTGTSTNYADSVKGRFTISRDNSKNTVYLQMNSMKPEDTAVYYCAAAYYSGLSHWYWGQGTQVTVSS
polyreactivity (PSR sort gate): low polyreactivity

QVLLQETGGGLVQAGGSLSLSCAASGTISTDIRMGWYRLAPGKEREFVASIDGCSTTYYADSVKGRFTFSRDNAKNTVYLQMNRLIPEDTSMYYCAAREATEFYLYYWGQGTQVTVSS
polyreactivity (PSR sort gate): low polyreactivity

QVLLVESGGGIVQAGGSLRLSCSASGIIFPCYAMGWYRQAPGKERELLAAISSSGSSTYYADSVMGRFTITRDNAKNTVYLQMNSLKPEDTAVYYCAAVRYGMRRMDYWGQGTQVTVSS
polyreactivity (PSR sort gate): high polyreactivity

QVLLVESGGGLGQAGGSLRLSCAASGAIFVGYAMGWYRQAPGKEREMVAAISKSGGSTYYADSVKGRFTISRDNAKNTVYLQMKSLKPDDTAVYYCAAYPVRLVYSQHRYLYDYWGQGTQVTVSS
polyreactivity (PSR sort gate): high polyreactivity

QVLLVESGGGLVQAGGSLRLICDDSGFIFTYYAMGLYRQAPVTEREFVAAIRASGGSTYYSYSVKGRFTISRDKAQNTVYLQMNSLKPEETAVYYCAARYRQRLRSTSYDYWGQGTQVTVSS
polyreactivity (PSR sort gate): high polyreactivity

QVLLVESGGGLVQAGGSLRLSCAASGRTFVTNAMGWYTQAPGKERELVAGITRRGGSTYYADSVKGRFTISRDNAKNTVYLQMNSLKPEDTAVYYCARRGDTSTRYYYWGQGTQVTVSS
polyreactivity (PSR sort gate): high polyreactivity

QVLLVESGGGLVQAGGSLRLSCAASGRTSFQYAMGWYSQAPGTDRELVAALSWSGGATVYADSVKGRFTISRDNAKNTDYLQMNSLKPEDTAVYYCAKRRRLDQNTCYGLDYWGQGTQGTVSS
polyreactivity (PSR sort gate): low polyreactivity

QVLLVESGGGLVQAGGSLRLSCAASGSTFFFNAMGSSRQAPGKEWELVATISRDGSTNYADSVKGRFTISRDNAKNTVYLQMNSLKPEDTAVYYCAAGWGWPYHQYDYWGQGTQVTVSS
polyreactivity (PSR sort gate): low polyreactivity

QVLLVESGGGLVQAGGSLRLSCAASGSTFSQYAMGWNRQAPGKERELVAAIDSGSNTKYADSVKGRFTISRDHAKNTVYLQMNSLKPEDTAVYYCAADDSYRSIGGDYWGQGTQVTVSS
polyreactivity (PSR sort gate): low polyreactivity

QVLLVESGGGLVQAGGSLRLSWAASGSIFTIYAMGWYRKAPGQERELVAAMNRGDGTNYADSVKGRFTISRDKAKNTVYLQMKSLKPEDTPVYYCAAEYYTEYQKWFDYWGQGTQVTLSS
polyreactivity (PSR sort gate): high polyreactivity

QVLLVESGGGLVQEGGSLRLSCAASGIIFQFYAMGWYRQAPGKERELVAAISRSGGITHYADSVKGRFTISRDNAKNTVYLQMNSLKPEDTAVYYCAAVRQAYPRLDYWGQGTQVTVSS
polyreactivity (PSR sort gate): high polyreactivity

QVLLVESGGGLVQSGRSLRLSCAASGLIFSRYAMGWYRPAPGKERELVAAITSGTSTYYADSVKGRFTISRDNAKNTVYLQLNSLIPEDTAVYYCAARWLTFNARYYPYYYWGQGTQVTVSS
polyreactivity (PSR sort gate): high polyreactivity

QVLLVESGGVLVQAGGSLRLSCAASGSTFWSYAMGWYRQAPGKERELVAAISWSGDSTYYADSVKGRFTISRDNAKNTVYLQMNSLKPEDTAVYYCAADYVGGSYEYEYWGQGTQVTVSS
polyreactivity (PSR sort gate): low polyreactivity

QVLLVESGPGLVQAGGSLRLSCAASGSTLYYYAMGWYRQAPGKERELVAAITWSGDSTYYADSVKGRFTISRYNAKNTVYLQMNSLIPEDTAVYYCASEVESYDQYYTYDYWGQGTQVTVSS
polyreactivity (PSR sort gate): high polyreactivity

QVLLVVSGGGLVQAGGSLRLSCAASGFTFDTYAMGWNRQAPGKERELVAVITRGGSTNYADSVNGRFTISRDNAKNTVYLQMNSLKPEDTALYFCAAEHRNTYTFARDYYWGQGTQVTVSS
polyreactivity (PSR sort gate): high polyreactivity

QVLQQESCGLVQAGCSLRMSCAASGSISTALSMGWYRQAPGKERELVATISDGASTNYADSVKGRFTISRVNAKNTVYLQMNSLKPEDTAVYYFARYYFGNFGWGQGTQVTVSS
polyreactivity (PSR sort gate): high polyreactivity

QVLRVESGGGLVQAGGSLRLSCSASGFIFRPNAMGWYRQAPGKERELVARITYRGGSTYYADSVKGRFTISRDNAKKTVYLQMNSLKPEDTEVYYCAARAVTYAGYTYNYWGQGSQVTVSS
polyreactivity (PSR sort gate): high polyreactivity

QVLVVESGGCLVQAVGSLRLSCAAYGITCSRNALGWYRLAAGKERELVATITSGGSTNYADSVKGRFTISRDNAKNTVYLQMMSLKPEDPAVYFCNAVWNTFISGRSYDYWGQVTQVTVSS
polyreactivity (PSR sort gate): low polyreactivity

QVNHVESGGGLVQAGGSLRLICAASGSTYNNAMGWYRQAPGKERELVAAIRWSGGSTYYADSVKGRFTISRDNANYTVYLQMNSLNPEDTAVYYCASAYRWSRKRYNDYDYWGQGSQVTVSS
polyreactivity (PSR sort gate): high polyreactivity

QVNLVESGGGLVQAGGSLRLSCAASGRIFRKYAMGWYRQAPGKVREFVAAITVSGDRTYYADSVKGRFTISRDNAKNNVYLQMNSLKPEDTAVYYCATKGYYYPYVTYDYWGQGTQVTVSS
polyreactivity (PSR sort gate): low polyreactivity

QVNLVESGGGLVQAGGSLRLSCAASGSIFSKNAMGWYRQAPGRERELVAAITSGASTNYADSVKGRFTISRDNAKNTVYLQMNSLKPEDTAVYYCASKRNGFWYGYWGQGTHVTVSS
polyreactivity (PSR sort gate): low polyreactivity

QVNLVESGGGLVQAGGSLRLSCAASGSIFVGYAMRWYRQAPGKERELVAAISSNSASTYYADSVKGRFTISRDNAKNTLYLQMNSLKPEDTEVYYCATAYRSYWLNDYWGQGTQVTVSS
polyreactivity (PSR sort gate): low polyreactivity
